Laboratory results taken from paper PMC3482686.

Biological target: AEBP2 (shorter isoform) (human)
Assay: negative-stain EM 3D reconstruction with localisation of MBP and GFP tags; purified PRC2-AEBP2 complex mildly cross-linked with 0.015% glutaraldehyde, stained with 2% uranyl formate; random conical tilt and projection matching, 21 Å; tags located in reference-free 2D class averages

| stoichiometry N | Substance |
| --- | --- |
| 1 | Ezh2 (from UniProt Q15910-2 1-751) (enzyme) |
| 1 | EED (from UniProt O75530 1-441) (natural protein) |
